± gives the uncertainty stated by the source.
Experiment: self-splicing fitness, log relative to wild type (ln ratio); higher = more splicing; Tetrahymena group I intron in knt gene, E. coli kanamycin selection, DiMSum; sequences stand for … in CUCUCU…GGAGGGAAAAGUUAUCAGGCAUGCACCUGGUAGCUAGUCUUUAAACCAAUAGAUUGCAUCGGUUUAAAAGGCAAGACCGUCAAAUUGCGGGAAAGGGGUCAACAGCCGUUCAGUACCAAGUCUCAGGGGAAACUUUGAGAUGGCCUUGCAAAGGGUAUGGUAAUAAGCUGACGGACAUGGUCCUAACCACGCAGCCAAGUCCUAAGUCAACAGAUCUUCUGUUGAUAUGGAUGCAGUUCACAGACUAAAUGUCGGUCGGGGAAGAUGUAUUCUUCUCAUAAGAUAUAGUCGGACCUCUCCUUAAUGGGAGCUAGCGGAUGAAGUGAUGCAACACUGGAGCCGCUGGGAACUAAUUUGUAUGCGAAAGUAUAUUGAUUAGUUUUGGAGUACUCGUGGUCG
Method in brief: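 Fitness was computed with DiMSum as the error-weighted combination of replicate fold changes, kanamycin versus none, each normalised to wild type. The library randomised all eight intron nucleotides of the P1ex region, with the intron placed in the knt kanamycin-resistance gene on pET-22b(+) in E. coli BL21(DE3). Six replicate transformations were grown overnight at 37°C or 30°C on LB agar with or without 25 μg/mL kanamycin, plus 100 μg/mL carbenicillin, 50 μM IPTG and 0.2% rhamnose. Pooled colonies were amplicon-sequenced on an Illumina HiSeq 2500.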

Row | Sequence | self-splicing fitness (ln) (30 °C) | self-splicing fitness (ln) (37 °C)
1 | UUUUAGCAAUAUUACGCGUU | -2.55 ± 0.18 | -2.61 ± 0.19
2 | UUUUAGCAAUAUUACGCUCG | -0.861 ± 0.14 | -0.128 ± 0.16
3 | UUUUAGCAAUAUUACGCUCU | -0.0349 ± 0.23 | -0.135 ± 0.18
4 | UUUUAGCAAUAUUACGCUGU | -3.26 ± 0.34 | -1.98 ± 0.33
5 | UUUUAGCAAUAUUACGGCAC | – | -0.642 ± 0.28
6 | UUUUAGCAAUAUUACGGCAG | -0.809 ± 0.11 | -0.727 ± 0.15
7 | UUUUAGCAAUAUUACGGCGA | -0.835 ± 0.17 | 0.114 ± 0.18
8 | UUUUAGCAAUAUUACGGCUA | -2.21 ± 0.44 | -0.365 ± 0.31
9 | UUUUAGCAAUAUUACGGGAC | -2.5 ± 0.26 | -1.83 ± 0.47
10 | UUUUAGCAAUAUUACGGGAG | -0.728 ± 0.16 | -1.79 ± 0.29
11 | UUUUAGCAAUAUUACGGGCA | -1.86 ± 0.39 | -0.575 ± 0.27
12 | UUUUAGCAAUAUUACGGUAU | -2.87 ± 0.32 | -3.11 ± 0.47
13 | UUUUAGCAAUAUUACGUAAG | -0.681 ± 0.13 | -0.523 ± 0.14
14 | UUUUAGCAAUAUUACGUACG | -2.14 ± 0.37 | -0.297 ± 0.33
15 | UUUUAGCAAUAUUACGUCGA | -0.866 ± 0.12 | 0.0877 ± 0.14
16 | UUUUAGCAAUAUUACGUUCG | -0.683 ± 0.11 | -1.34 ± 0.12
17 | UUUUAGCAAUAUUACGUUCU | -3.48 ± 0.37 | -1.17 ± 0.17
